T1: human B7H3 on the cell surface (A498, CT26/hB7H3, U87, Detroit562 cells) (human, UniProt Q5ZPR3 29-534)
T1 sequence: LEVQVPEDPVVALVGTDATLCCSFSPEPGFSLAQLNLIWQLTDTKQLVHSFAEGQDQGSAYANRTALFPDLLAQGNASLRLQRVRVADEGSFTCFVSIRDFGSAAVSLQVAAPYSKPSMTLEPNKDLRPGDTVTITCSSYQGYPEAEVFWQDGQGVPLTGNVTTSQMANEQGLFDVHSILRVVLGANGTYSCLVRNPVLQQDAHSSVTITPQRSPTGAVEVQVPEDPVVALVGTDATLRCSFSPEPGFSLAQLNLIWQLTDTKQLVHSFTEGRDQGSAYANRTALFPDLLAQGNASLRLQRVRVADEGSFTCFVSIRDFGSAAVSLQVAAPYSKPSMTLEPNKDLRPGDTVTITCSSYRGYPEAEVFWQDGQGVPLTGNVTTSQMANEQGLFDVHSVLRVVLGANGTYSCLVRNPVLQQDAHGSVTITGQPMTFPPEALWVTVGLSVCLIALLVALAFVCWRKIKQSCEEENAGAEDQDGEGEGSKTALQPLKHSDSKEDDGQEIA

T2: Human B7H3 antigen for detection (SinoBiological cat #11188-H08H) (human, UniProt Q5ZPR3 29-461)
T2 construct: Bought antigen
T2 sequence: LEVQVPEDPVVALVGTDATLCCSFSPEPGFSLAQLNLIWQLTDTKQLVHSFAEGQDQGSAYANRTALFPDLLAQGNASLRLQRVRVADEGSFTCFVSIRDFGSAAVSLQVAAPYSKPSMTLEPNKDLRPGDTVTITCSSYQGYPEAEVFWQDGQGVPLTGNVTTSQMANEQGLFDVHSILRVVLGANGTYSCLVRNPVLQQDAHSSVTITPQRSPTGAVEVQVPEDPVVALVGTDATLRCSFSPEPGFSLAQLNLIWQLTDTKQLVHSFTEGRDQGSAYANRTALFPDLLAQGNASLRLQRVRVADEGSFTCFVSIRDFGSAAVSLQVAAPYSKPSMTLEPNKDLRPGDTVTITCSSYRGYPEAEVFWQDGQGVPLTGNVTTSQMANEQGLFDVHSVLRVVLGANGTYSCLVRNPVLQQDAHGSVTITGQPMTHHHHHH

T3: Monkey B7H3 antigen for detection (SinoBiological cat #90806-C08H) (monkey (cyno))
T3 construct: Bought antigen; also called monkey (cyno) B7H3
T3 chain: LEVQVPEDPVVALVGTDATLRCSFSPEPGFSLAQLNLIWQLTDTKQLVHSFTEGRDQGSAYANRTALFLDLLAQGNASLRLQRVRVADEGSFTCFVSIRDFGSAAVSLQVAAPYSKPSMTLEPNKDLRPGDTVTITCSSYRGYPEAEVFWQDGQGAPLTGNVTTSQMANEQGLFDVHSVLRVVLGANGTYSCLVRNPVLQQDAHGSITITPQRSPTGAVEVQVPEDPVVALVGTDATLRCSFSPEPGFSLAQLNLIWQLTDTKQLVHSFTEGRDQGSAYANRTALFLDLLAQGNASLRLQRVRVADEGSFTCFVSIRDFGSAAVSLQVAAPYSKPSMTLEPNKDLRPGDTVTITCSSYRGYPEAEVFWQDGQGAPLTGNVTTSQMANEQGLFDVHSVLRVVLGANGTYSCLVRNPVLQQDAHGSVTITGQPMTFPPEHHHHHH

B1: bispecific antibody 127 (AFF3-3) (bispecific antibody)
chain 1: not shown
chain 2: QTVVTQEPSFSVSPGGTVTLTCGLSSGSVSTSHYPSWYQQTPGQAPRMLIYNTNTRSSGVPDRFSGSILGNKAALTITGAQADDESDYYCAIHVDRDIWVFGGGTKLTVLGGGGSGGGGSGGGGSQVQLVQSGGGVVQPGTSLRLSCAASGFIFSSSAMHWVRQAPGKGLEWVAVISYDGSNKYYVDSVKGRFTISRDNSKNTLYLQMNSLRAEDTAVYYCARSARLYASFDYWGQGALVTVSSGGGDKTHTCPPCPAPEAAGGPSVFLFPPKPKDTLMISRTPEVTCVVVDVSHEDPEVKFNWYVDGVEVHNAKTKPREEQYNSTYRVVSVLTVLHQDWLNGKEYKCKVSNKALPAPIEKTISKAKGQPREPQVCTLPPSREEMTKNQVSLSCAVKGFYPSDIAVEWESNGQPENNYKTTPPVLDSDGSFFLVSKLTVDKSRWQQGNVFSCSVMHEALHNHYTQKSLSLSPGK
notes: B7H3 bivalent CD3-B7H3 bispecific antibody, CD3 VH HRH-3
B2: bispecific antibody 132 (AFF3-3SS) (bispecific antibody)
chain 1: not shown
chain 2: B1 chain 2
B3: bispecific antibody 155 (AFF3-5) (bispecific antibody)
chain 1: not shown
chain 2: B1 chain 2
notes: B7H3 bivalent CD3-B7H3 bispecific antibody, CD3 VH HRH-5
B4: bispecific antibody 156 (AFF3-6) (bispecific antibody)
chain 1: not shown
chain 2: B1 chain 2
notes: B7H3 bivalent CD3-B7H3 bispecific antibody, CD3 VH HRH-6

Tests used:
[1] = target: T1, human B7H3 on the cell surface (A498, …); assay: cell-based or functional assay
[2] = target: T4, Human CD3 antigen for detection (SinoBiological cat #CT038-H2508H); human CD3 epsilon-His and human CD3 … (human, UniProt P07766 23-126; P04234 22-105); assay: Biacore T200 SPR, bispecific antibody captured, antigen as analyte, 1:1 Langmuir fit
T4 construct: Bought antigen
Experimental: (§1) The detection of antibody affinity to B7H3 and CD3 was performed in the form of capture antibody. BsAb was captured by CM5 biosensor chip (Cat. #BR-1005-30, GE) or Protein A (Cat. #29127556, GE) biosensor chip coupled with Anti-Human IgG Antibody (Cat. #BR-1008-39, Lot. #10260416, GE), and then each antigen flowed through the surface of the chip. The reaction signals were detected in real time with the Biacore T200 instrument to obtain the binding and dissociation curves. After the dissociation of each experimental cycle was completed, the chip was washed and regenerated with regeneration buffer Glycine1.5 (Cat #BR100354, GE) or 3 M MgCl₂ (from Human antibody capture kit, Cat. #BR100839, GE). The data were fitted with the (1:1) Langmuir model using GE Biacore T200 Evaluation version 3.0 software, and the affinity values were obtained.

[3] = target: T5, Monkey CD3 antigen for detection (Acro biosystem cat #CDD-C52W4); monkey CD3 epsilon-His and monkey CD3 … (monkey (cyno), UniProt Q95LI5 22-117; Q95LI8 22-105); assay: as above
T5 construct: Bought antigen
Experimental: as §1

[4] = target: T2, Human B7H3 antigen for detection …; assay: as above
Experimental: as §1

[5] = target: T3, Monkey B7H3 antigen for detection …; assay: as above
Experimental: as §1

[6] = target: T4, Human CD3 antigen for detection …; assay: Biacore T200 SPR, bispecific antibody captured, CD3 antigen as analyte, 1:1 Langmuir fit
Experimental: as §1

[7] = target: T1, human B7H3 on the cell surface (A498, …); assay: FACS on A498 cells expressing human B7H3, APC anti-human IgG Fc detection, geometric mean fluorescence
Experimental: (§2) The ability of bispecific antibodies to bind to cell surface antigens was detected by FACS method.
(§3) FACS buffer (98% PBS, 2% FBS) was added into a 96-well U-shaped bottom plate (corning, 3795) to resuspend the cells, the serially diluted antibodies were added, incubated at 4° C. for 1 hour, and the plate was washed with FACS buffer twice. Then APC anti-human IgG Fc Antibody (biolegend, Cat #409306, dilution at 1:50) was added into each well, incubated at 4° C. for 30 minutes, washed twice, the cells were resuspended in FACS buffer, and finally the fluorescence signal values were read by FACS CantoII (BD).

[8] = target: T1, human B7H3 on the cell surface (A498, …); assay: FACS on CT26/hB7H3 cells over-expressing human B7H3, APC anti-human IgG Fc detection, geometric mean fluorescence
Experimental: as §2, §3

[9] = target: human CD3 on the cell surface (Jurkat recombinant cells; T cells of PBMC) (human, UniProt P07766 23-207; P04234 22-171); assay: FACS on Jurkat recombinant cells expressing CD3, APC anti-human IgG Fc detection, geometric mean fluorescence
Experimental: as §2, §3

[10] = target: T4, Human CD3 antigen for detection …; assay: Biacore T200 SPR, bispecific antibody captured, CD3 antigen as analyte
Experimental: as §1

T4 sequence (P07766 other isoform, or with tags, fused parts or gaps H2508H H2508H, chain 1 of 2): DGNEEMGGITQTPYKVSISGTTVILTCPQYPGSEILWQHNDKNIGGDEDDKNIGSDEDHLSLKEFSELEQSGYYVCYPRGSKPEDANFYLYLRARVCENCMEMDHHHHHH
T4 sequence (P04234 other isoform, or with tags, fused parts or gaps H2508H H2508H, chain 2 of 2): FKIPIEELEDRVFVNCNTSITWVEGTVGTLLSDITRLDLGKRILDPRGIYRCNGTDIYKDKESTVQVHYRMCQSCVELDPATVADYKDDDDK
T5 sequence (Q95LI5 other isoform, or with tags, fused parts or gaps mutant, chain 1 of 2): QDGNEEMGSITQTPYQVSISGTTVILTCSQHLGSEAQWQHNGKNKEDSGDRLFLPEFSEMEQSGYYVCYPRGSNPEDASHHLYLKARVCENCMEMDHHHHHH
T5 sequence (Q95LI8 other isoform, or with tags, fused parts or gaps mutant, chain 2 of 2): as the sequence (P04234 other isoform, or with tags, fused parts or gaps H2508H H2508H, chain 2 of 2) above, with I5V, N15K, I20V, S32T, D33N, I34N, T64A, S74N, V83L counted along it
human CD3 on the cell surface (Jurkat recombinant cells; T cells of PBMC), sequence (P07766 23-207, chain 1 of 2): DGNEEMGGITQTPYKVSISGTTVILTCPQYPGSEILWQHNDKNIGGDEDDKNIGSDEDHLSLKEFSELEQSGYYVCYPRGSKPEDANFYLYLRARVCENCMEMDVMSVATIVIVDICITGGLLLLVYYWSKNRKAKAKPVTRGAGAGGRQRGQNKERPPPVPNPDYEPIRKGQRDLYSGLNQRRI
human CD3 on the cell surface (Jurkat recombinant cells; T cells of PBMC), sequence (P04234 22-171, chain 2 of 2): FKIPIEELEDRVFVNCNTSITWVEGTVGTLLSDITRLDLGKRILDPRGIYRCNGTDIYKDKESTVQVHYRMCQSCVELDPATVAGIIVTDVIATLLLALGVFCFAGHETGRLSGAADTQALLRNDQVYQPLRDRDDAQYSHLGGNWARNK

Binder	Emax (%), PBMC-mediated killing of A498 cells (B7H3 high) [1]	Emax (%), PBMC-mediated killing of Detroit562 cells (B7H3 low) [1]	Emax (%), PBMC-mediated killing of U87 cells (B7H3 intermediate) [1]	IC50 (nM), PBMC-mediated killing of A498 cells (B7H3 high) [1]	IC50 (nM), PBMC-mediated killing of Detroit562 cells (B7H3 low) [1]	IC50 (nM), PBMC-mediated killing of U87 cells (B7H3 intermediate) [1]	Kd [2]	Kd [3]	Kd [4]	Kd [5]	Kd [6]	EC50 (read off the curve) [7]	EC50 (read off the curve) [8]	EC50 (read off the curve) [9]	binding result [10]
B1	67.5%	26.5%	69.5%	2.4 nM	15.8 nM	8.2 nM	84.7 nM	1.24 nM	4.29 nM	5.61 nM	97.2 nM	~40 nM	~2 nM	–	–
B2	66.4%	15.2%	67.6%	2.94 nM	15.7 nM	11.9 nM	85.3 nM	0.813 nM	5.35 nM	6.9 nM	–	~30 nM	~2 nM	~300 nM	–
B3	–	–	–	–	–	–	–	–	–	–	–	–	–	–	no binding
B4	–	–	–	–	–	–	–	–	–	–	–	–	–	–	no binding
